By stoichiometry N is commonly meant a count of units in the complex or per binding partner.

The values below come from publication PMC8446579.

In the assay the target is Candida parapsilosis ATCC 7330 imine reductase CpIM1 (Candida parapsilosis ATCC 7330). In words: SEC. (Size exclusion chromatography separates by hydrodynamic size, large species first.)

Regarding “Candida parapsilosis ATCC 7330 imine reductase CpIM1 (enzyme)”, the stoichiometry N turned out to be 2.
